The values below come from the nanobody polyreactivity screen of Harvey et al. (2022).

This series in a line: yeast display, Sf9 membrane polyspecificity reagent, FACS + sequencing; frameworks hold sequencing errors. The gist of the method:
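Synthetic nanobody libraries on Saccharomyces cerevisiae BJ5465 were galactose-induced for 36–48 hours, stained 1 hour at 4 °C with 10% biotinylated, detergent-solubilized Sf9 membrane reagent and enriched on streptavidin microbeads. FACS then separated cells into low and high (top ~1%) gates by anti-HA (expression) and streptavidin (reagent binding) fluorescence. Genes were colony-PCR amplified, MiSeq 2 × 250 sequenced and CDR-length filtered. A clone's polyreactivity label is that of its gate of origin.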
For “QVQLVESGGGLVQAGGSLRLSCAASGYIFLGYDMVWYRQAPGKERELVAVINWSGGRTRYADSVKGRFTISRDNAKNTVYLQMNSLKPEDTAVYYCAAERSITYDYWGQGSQVTVSS”, the “polyreactivity (PSR sort gate)” value was “high polyreactivity”.

Take “QVQLVESGGGLVQAGGSLRLSCAASGYIFLRNSLGWYRQAPGKERELVAAIRRTGGSTYYADSVKGRFTISRDNAKNTVYLQMNSLKPEDTAVYYCAKRSYTGYEYWGQGTQVTVSS”: the “polyreactivity (PSR sort gate)” value is recorded as “low polyreactivity”. To “QVQLVESGGGLVQAGGSLRLSCAASGYIFNPNAMGWYRQAPGKERELVAAITWSGGNTYYADSVKGRFTISRDNAKNTVYLQMNSLKPEDTAVFYCNAEYRWPYWGQWYFKGYDYWGQGTQVTVSS” belongs “low polyreactivity”; to “QVQLVESGGGLVQAGGSLRLSCAASGYIFNYAIGWYRQAPRKESELVAAITWDGSSTNYADSVKGRFTISRDNAKNTVYLQMKSLKPEDTAVYYCNARGRWTFNGFWFTYNYWGQGTQVTVSS”, “high polyreactivity”; to “QVQLVESGGGLVQAGGSLRLSCAASGYIFPDYPMGWYRPATGKERELVAAFTSSGGRTYYADSVKGRFTISRDNAKNTVYLQMNSLKPEDTAVYYCAAVSVLKKTFDYWGQGTQVTVSS”, “high polyreactivity”. To “QVQLVESGGGLVQAGGSLRLSCAASGYIFPPYAMGWYRQAPGKERELVATMTGIGGSTDYADSVKGRFTISRDNAKNTVYLQMNSLKPEDTAVYYCAARRDGYGTHYDYWGQGTQVTVSS” belongs “low polyreactivity”; to “QVQLVESGGGLVQAGGSLRLSCAASGYIFPYYPMGWYRQAPGKQRELVAAISRSGGGTYYADSVKGRFTISRDIANNTVYLQMNSLKPEDTALYYCNRRSGHVHEYDYWGQGTQVTVSS”, “low polyreactivity”. Regarding “QVQLVESGGGLVQAGGSLRLSCAASGYIFQDYAMGWYRPAPGKERELVAAITSGGSTYYADSVKGRFTISRDNAKNTVYLQMNSLKPEDTAVYYCAAVGYYSVPGYSSRRYYYWGQGTQVTVSS”, the “polyreactivity (PSR sort gate)” value is on record as “high polyreactivity”. To “QVQLVESGGGLVQAGGSLRLSCAASGYIFQRYTMGWYRQAPGKERELVAAITRSGGRTYYADSVKGRFTISRDNAKNTVYLQMNSLKPEDTAVYYCAVDYRTRGDYWGQGTQVTVSS” belongs “high polyreactivity”; to “QVQLVESGGGLVQAGGSLRLSCAASGYIFQTYAMGWYRQAPGKEREFVAAITSGAGRTSYADSVKGRFTISRDNAKNTVYLQMNSLKPEDTAVYYCAARWRYQLSGSRLSYGKYDYWGQGTQVTVSS”, “high polyreactivity”. For the sequence “QVQLVESGGGLVQAGGSLRLSCAASGYIFQYYAKGWYRQAPGKERELVAAITGGGSTKYADSVKGRFTISRDNAKHTVYLQMNSLKPEDTAVYYCAKRYPSWFNYWGQGTQVTVSS”, the “polyreactivity (PSR sort gate)” value is given as “high polyreactivity”. To “QVQLVESGGGLVQAGGSLRLSCAASGYIFRFNAMGWYRQAPGKERELVAAISRSGGRTYYADSVKGRFTISRDNAKNTVYLQMNSLKPEDTAVYYCAAVRYKGGGNQPYGYWGQGTQVTVSS” belongs “high polyreactivity”. To “QVQLVESGGGLVQAGGSLRLSCAASGYIFRFNAMGWYRQAPGKERELVAVITSGARTYYADSVKGRFTISRDNAKNTFYLLMNSLKPEDTAVYYCNAGARRYLYDYWGQGTQVTVSS” belongs “low polyreactivity”. To “QVQLVESGGGLVQAGGSLRLSCAASGYIFRGYVMGWYRQAPGKERELVAAITSRGDSTYYADSVKGRFTISRDNAKNTVYLQMNSLKPEDTAVYYCNAVHYYVEYDYWGQGTQVTVSS” belongs “high polyreactivity”. For “QVQLVESGGGLVQAGGSLRLSCAASGYIFRRYAMGWYRQAPGKERELVAAISFSGGSTYYADSVKGRFTISRDNAKNTVYLQMNSLKPEDTAVYYCAALSLLRYDYWGQGTQVTVSS”, the “polyreactivity (PSR sort gate)” value is “high polyreactivity”. To “QVQLVESGGGLVQAGGSLRLSCAASGYIFRSYVMGWYRQAPGKERELVAAISVSGGRTYYADSVKGRFTMSRDNAKNTVYLQMNSLIPEDTAVYYCAAYLGRRGQEMDYWGQGTQVTVSS” belongs “high polyreactivity”.
